Measurements reported in the nanobody polyreactivity screen of Harvey et al. (2022).

Assay: yeast display, Sf9 membrane polyspecificity reagent, FACS + sequencing; frameworks hold sequencing errors
Outline: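 Nanobodies from a synthetic yeast display library (Saccharomyces cerevisiae BJ5465), induced 36–48 hours with galactose, were stained 1 hour at 4 °C with 10% biotinylated, detergent-solubilized Sf9 membrane reagent, enriched on streptavidin microbeads, then FACS-sorted. Anti-HA (expression) and streptavidin (reagent binding) fluorescence set low and high (top ~1%) gates. Polyreactivity labels come from the gate of origin. Genes were colony-PCR amplified, MiSeq 2 × 250 sequenced and filtered by CDR length.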

Row | Sequence | polyreactivity (PSR sort gate)
1 | QVQLVESGGGLVQAGGSLRLSCAASGRTFVGYAMGWYRQSPGKERELVAAISTSGGRTYYADSVKGRFTISRDNAKYTVYLQMNSLKPEDTAVYYCAAGFRASIGYVTEYYWGQGTQVTVTS | high polyreactivity
2 | QVQLEESGGGLVQAGGSLRLSCAASGSIFVGNVMGWYRQAPGKERELVAAITYSGGSTYYADSVKGRFTISRDNAKNTVYLQMNSLKPEDTAVYYCAKPSRVSIGYDYWGQGTQVTVSS | low polyreactivity
3 | QDQLVESGGGLVQAGGSLGLSCAASGITFDLYDMGWYRQAPGKERELVAAITDAHSTYYADSVKGRFTISRDNAKNTVYLQMNSLKPEDTAVYYCAADFFYSVDSGHYDYWGQGTQVTVSS | low polyreactivity
4 | QVQLVESGGGLVQAGGSLRLSCAASGRTFSQYDMGWYRQAPGKERELVAAISWSGGRTYYADSVKGRFTISRDNAKNTVYLQMNSLKPEDTAVYYCAAAYSWIRSPYNDPNRGYDYWGQGTQVTVSS | low polyreactivity
5 | QVQLVESGGGLVQAGGSLPLSCAASGSIFSKYTMGWYRQAPGKERELDAAISRAGSTYYADSVKGRFTISRDNAKNSVYLQMNSLKPEDTAVYYCNARYRGVYPLIGIRRDYYYWGQGTQVTVSS | high polyreactivity
6 | QVQLVESGGGLVQAGGSLRLSCAASGRIFGIYAMGWYRQAPGKESEFVAAISWRTGSTYYADSVKWRFTISRDNAKNTVYLQMNRLNPADTAVYYCAAESASKYGYWVQGTQVTVSS | high polyreactivity
7 | QVQLVESGGGLVQAGGSLRLSCAATGRIFYPYAMGWYRQAPGKERELVATIRWRGGSTRYADSVKGRFTISRDNAKNTVFLQMNSLKPEDTAVYYCAAGFKVEPTDLYYWGQGTQVTVSS | high polyreactivity
8 | QVQLVESGGGLVQAGGSLRLSCAASGRTSGVYAMGWYRQAPGKERELVAAITSDSTYYADSVKGRFTISRDNAKNTVYLQMNSLKPEDTAVYYCAADSLARRYDYWGQGTQVTVSS | low polyreactivity
9 | QVQLVESGGGLVQAGGSLRLSCAASGFLFRYYTMGWYRQAPGKERDLVAVITRGGSTYYADSVKGRFTISRDNAKNTVYLQMNSLKPEDTAVYYCAAVRTKVWRGPEMDYWGQGTQVTVSS | high polyreactivity
10 | QVQLQESGGGLVQAGGSLRLSCAASGTISVAAYMAWYRQAPGKEREYVASIGYGATTYYADSEKGTFTISRDNAKNTVYLQMNSLKPGDTAVYYCAVDRSPQYRYLYYWGQGTQVTVCS | high polyreactivity
11 | QVQLVESGGGLVQAGGSHRLSCAASGSTFVPYTMGWYRQAPGKERELVAAISGSGGTDYADSVKGRFTISRDNAKNTVYLQMNSLKPEDTAVYYCATDGLDFWFIYDYWGQGTQVTVST | low polyreactivity
12 | QVQLVESGGGLVQAGGSLRLSCAASGFSFRVYTMGWYRQAPGKERELVAAISYRGGRTYYADTVKGRFTISRDNAKNNVYLQMNSLKPEDSALYYCAATAIYPSAWRMDYWGQGTLVTVSS | high polyreactivity
13 | QVQLVESGGRLFQAGGSLRLICAASGSIFVYNTKGWYRQSPGKERELVASISYSGGPTYYADSVKGRFTISRDNAKNTVYLQMKSLNPEDTAVYYCAADVRQRGIYGPGPHYYWGQGTQVTVSS | high polyreactivity
14 | QVQLVESGGGLVQAGGSLRLSCAASGYIFPRYAMGWYRQAPGKERELVAAISYSGGSTYYADSVKGRFTISRDYAKNTVYLQMNSLKPEDTAVYYCNAYFLSQYQSAYRDDYWGQGTQVTVSS | high polyreactivity
15 | QVQLVESGGGLVQAGGSLRLSCAASGRTFSPNTMGWYRQAPGKEREFVAAITASGDSTYYADSVKGRFTISRDNAKNTVYLQMNSLKPEDTAVYYCDTDSNWYWGFNYWGQGTKVTVSS | low polyreactivity
16 | QVQLVESGGGLVQAGGSLRLSCAASGITFYKYAMGWYRQAPGKERELVASISNGGNTNYADSVKGRFTISSDNAKNTVYLQMNSLKPEDTAVYYCAAGRQWYSYYRNDYWGQGTQVTVSS | high polyreactivity
17 | QDQLVESGGGLVQAGGSLRLSCAASGSTFGVNAMGWYRQAPGKERELVAIITSTTYSDSVKGRFTISRDNAKNTVYLQMNSLKPEDTAVYYSAADSLLVLFDYWGQGTQVTVSS | low polyreactivity
18 | QVQLVESGGGLVQAGCSLRLSCAASGSNFEENAMGWYRQAPGKESELVAAITIGGRTNYADSVKGRFTISRDNAKNTVYLQMNSLKPEDTAVYYCAADLSSNKYWRFWTRYYYWGQGTQVTVSS | low polyreactivity
19 | QVQLVESGGGLVQAGGSLRLSCAASGRIFGTYAMGWYRQAPGKERELVARITRIGTRTYYADSVKGRFTISRDNAKNTVYLQMNSLKPEDTAVDYCAAGHYSYWVNTVKRYNTGYDYWGQGTQVTVSS | high polyreactivity
20 | QVQLVESGGGLVQAGGSLRLISAASGNIVYFNAMGWYRQAPGKERELVAAISRAGSTYYADSVKGRFTISRDNAKNTVYLQMNSLKQEDTAVYYCAATTGRPDNYYYWGQGTQVTVSS | high polyreactivity
21 | QVQLVESGGGLVQAGGSLRLSCAASGNTFEYYVMGWYRQAPGKERELVAAITWSTGSTYYADSVKGRFTISRDNAKNTVYLQMNSLKPEDTAVYYCNAAYVYYYPHYRYAPTAVDYDYWGQGTQVTVSS | low polyreactivity
22 | QVQLVESGGGLVQAGGSLRLSCAASGSTFSPNAMGWYRQAPGKERELVAAITWSGGSNTYADSVKGRFTISRDNAKNTVYLQMNSLKPEDTAVYYCAADTKYDNDYWGQGTQVTVSS | low polyreactivity
23 | QVQLVESGGGLVQAGGSLRLSCAASGRIFSQYAMGWYRQAPGKERELVAAISRRTGSTYYADSVKVRFTISRDNAKNTVYLQMNSLKPDDTAVYFCNKARLGWSYRQDDYWGQGTQVTVSS | high polyreactivity
24 | QVQLVESGGGLVQAGGSLRLSCAASGFIFYYYAMGWYRPAPGKERELVAAISRTGGRTYYADSVKWRFTISRDNAKKTVYLQMNSLKPEDTAVYYCAADQGNRFDYWGQGTQVTVSS | high polyreactivity
25 | QVQLVESGGGLVQAGGSLRLSCAASGSISLLYAMGWYRQAPGKDRELVAAISSGTDDTYYADSVKGRFTISRDNAKNTVYLQMNSLKPEDTAVYYCAADPLFKDDLWPVRVRVDYWGQGTQVTVSS | low polyreactivity
26 | QVQLVESGGGLVQAGGSLRLSCAASGSTFAYYVMGWYRQAPGKERELVAAITSSGGRTYYADSVKGRFTISRDNAKNTVYLQMNSLKPEDTAVYYCAKVSQRRVDNSDYDYWGQGTQVTVSS | high polyreactivity
27 | QVQLVESGGGLVQAGGSLRLSCAASGSTSQLYAMGRYRQAPGKERELVAAITVSGDSTYYADSVKGRFTISRDNAKNTVYLQMNSLKPEDTAVYYCAADVMVQTVPGGYDDWGQGTQVTVSS | low polyreactivity
28 | QVQLLESGGGLVQAGGSLRLSCAASGRTFRINARGWYRQAPGKEREFVAAINYRGGSTYADSVKGRFTISRDNAKNTVYVQMNSLKPEDPAVYYCAAYATLWYYTGVHRGGFENWGQGSQVTVSS | high polyreactivity
29 | QVQLQESGGVQAGGSLRLSCAASGYISRSDVMGWYRQAPVKERELVATINNGTLTYYADSVKGRFTISRDNAKNTVYLQMNSLKPEDTPVHYCAVLQSDTDSLYYWGQGSQVTVSS | low polyreactivity
30 | HVQLVDSGGGLVQAGGSLRLSCAASGRTFSHNAMGWYRQAPGKDRELVATITYGAGRTSYADSVKGRFTISRDNAKNTLYLQMNSLKPEDTAVYYCNADYFTYRGGEYRRYEYWGQGTQVTVST | high polyreactivity
